Data taken from publication PMC10138348, “Continuous Fluorescent Sirtuin Activity Assay Based on Fatty Acylated Lysines” (International Journal of Molecular Sciences, 2023).

Target: F4, TNFα-derived peptide with a myristoylated lysine and fluorescein-labelled cysteine in the +2 position
Assay: fluorescence polarisation; SIRT2 in serial dilution from 1.6 µM, F4 10 nM, no NAD+, BSA from zero to 300 µM; 384-well plate, 20 mM Tris-HCl pH 7.8, 150 mM NaCl, 5 mM MgCl2; three independent replicates

B1: SIRT2 (enzyme)
chain: MAEPDPSHPLETQAGKVQEAQDSDSDSEGGAAGGEADMDFLRNLFSQTLSLGSQKERLLDELTLEGVARYMQSERCRRVICLVGAGISTSAGIPDFRSPSTGLYDNLEKYHLPYPEAIFEISYFKKHPEPFFALAKELYPGQFKPTICHYFMRLLKDKGLLLRCYTQNIDTLERIAGLEQEDLVEAHGTFYTSHCVSASCRHEYPLSWMKEKIFSEVTPKCEDCQSLVKPDIVFFGESLPARFFSCMQSDFLKVDLLLVMGTSLQVQPFASLISKAPLSTPRLLINKEKAGQSDPFLGMIMGLGGGMDFDSKKAYRDVAWLGECDQGCLALAELLGWKKELEDLVRREHASIDAQSGAGVPNPSTSASPKKSPPPAKDEARTTEREKPQ
Kd: 7 to 18 nM
